Reference: PMC7949154, “Heat shock transcription factor 1 is SUMOylated in the activated trimeric state” (The Journal of Biological Chemistry, 2020)
Substitutions are numbered along the chain they refer to. In names and notes the source's numbering stands.

T1: Heat shock transcription factor 1 (Hsf1), wildtype (human), Q00613
T1 chain: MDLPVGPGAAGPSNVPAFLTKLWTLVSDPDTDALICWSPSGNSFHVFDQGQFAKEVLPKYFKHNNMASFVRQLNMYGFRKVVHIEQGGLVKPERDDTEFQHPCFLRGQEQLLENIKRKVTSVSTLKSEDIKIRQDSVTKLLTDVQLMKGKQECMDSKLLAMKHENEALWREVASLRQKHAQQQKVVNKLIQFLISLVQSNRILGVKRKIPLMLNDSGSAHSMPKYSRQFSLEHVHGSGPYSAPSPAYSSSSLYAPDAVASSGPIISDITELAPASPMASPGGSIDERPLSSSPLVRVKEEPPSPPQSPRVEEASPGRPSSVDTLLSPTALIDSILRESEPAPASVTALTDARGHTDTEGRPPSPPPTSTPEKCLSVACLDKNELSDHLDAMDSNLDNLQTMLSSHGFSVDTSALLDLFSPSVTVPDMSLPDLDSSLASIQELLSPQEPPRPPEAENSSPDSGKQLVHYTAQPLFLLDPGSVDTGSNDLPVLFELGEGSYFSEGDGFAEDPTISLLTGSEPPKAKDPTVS

B1: Heat shock transcription factor 1 (Hsf1), wildtype, Q00613 1-529 (natural protein)
chain: T1 chain
B2: Hsf1–S303E,S307E (double phosphomimetic variant) (natural protein, human, UniProt Q00613 1-529, looked up)
chain: T1 chain with S303E, S307E
notes: Heat shock transcription factor 1 (Hsf1), human, full length, phosphomimetic S303E,S307E; theoretical mass 57,270.43 Da; also called EE; source: E. coli BL21(DE3) Rosetta, purified (Ni-IDA, tag cleaved with tobacco etch virus protease, SEC; monomeric and trimeric fractions)
B3: Hsf1–K298R,S303E,S307E (natural protein, human, UniProt Q00613 1-529, looked up)
chain: T1 chain with K298R, S303E, S307E
notes: Heat shock transcription factor 1 (Hsf1), human, full length, K298R in the S303E,S307E variant; also called REE; EE,K298R; source: E. coli BL21(DE3) Rosetta, purified (Ni-IDA, tag cleaved with tobacco etch virus protease, SEC)

Tests used:
[1] = biological target: T1, Heat shock transcription factor 1 …; experiment: native gel or EMSA; Blue native PAGE (8% gel, on ice) of monomeric Hsf1 and of Hsf1 monomers heat shocked at 42 °C for 10 min; samples taken at 0 and 3 h of incubation at 25 °C (Figure S1); conditions: remark: other sources report otherwise
[2] = biological target: the molecule itself; experiment: as above

Binder	stoichiometry N [1]	stoichiometry N [2]
B1	3	–
B2	–	3
B3	–	3
